Results as given in IntAct's records for PubMed 18001824.

B1: E3 ubiquitin-protein ligase RNF8 (Homo sapiens), O76064 (parent)
chain: MGEPGFFVTGDRAGGRSWCLRRVGMSAGWLLLEDGCEVTVGRGFGVTYQLVSKICPLMISRNHCVLKQNPEGQWTIMDNKSLNGVWLNRARLEPLRVYSIHQGDYIQLGVPLENKENAEYEYEVTEEDWETIYPCLSPKNDQMIEKNKELRTKRKFSLDELAGPGAEGPSNLKSKINKVSCESGQPVKSQGKGEVASTPSDNLDPKLTALEPSKTTGAPIYPGFPKVTEVHHEQKASNSSASQRSLQMFKVTMSRILRLKIQMQEKHEAVMNVKKQTQKGNSKKVVQMEQELQDLQSQLCAEQAQQQARVEQLEKTFQEEEQHLQGLEIAQGEKDLKQQLAQALQEHWALMEELNRSKKDFEAIIQAKNKELEQTKEEKEKMQAQKEEVLSHMNDVLENELQCIICSEYFIEAVTLNCAHSFCSYCINEWMKRKIECPICRKDIKSKTYSLVLDNCINKMVNNLSSEVKERRIVLIRERKAKRLF

Variants of: B1
Conditions: with mdc1_human MDC1, Q14676
mdc1_human MDC1, Q14676, sequence (Q14676 whole entry): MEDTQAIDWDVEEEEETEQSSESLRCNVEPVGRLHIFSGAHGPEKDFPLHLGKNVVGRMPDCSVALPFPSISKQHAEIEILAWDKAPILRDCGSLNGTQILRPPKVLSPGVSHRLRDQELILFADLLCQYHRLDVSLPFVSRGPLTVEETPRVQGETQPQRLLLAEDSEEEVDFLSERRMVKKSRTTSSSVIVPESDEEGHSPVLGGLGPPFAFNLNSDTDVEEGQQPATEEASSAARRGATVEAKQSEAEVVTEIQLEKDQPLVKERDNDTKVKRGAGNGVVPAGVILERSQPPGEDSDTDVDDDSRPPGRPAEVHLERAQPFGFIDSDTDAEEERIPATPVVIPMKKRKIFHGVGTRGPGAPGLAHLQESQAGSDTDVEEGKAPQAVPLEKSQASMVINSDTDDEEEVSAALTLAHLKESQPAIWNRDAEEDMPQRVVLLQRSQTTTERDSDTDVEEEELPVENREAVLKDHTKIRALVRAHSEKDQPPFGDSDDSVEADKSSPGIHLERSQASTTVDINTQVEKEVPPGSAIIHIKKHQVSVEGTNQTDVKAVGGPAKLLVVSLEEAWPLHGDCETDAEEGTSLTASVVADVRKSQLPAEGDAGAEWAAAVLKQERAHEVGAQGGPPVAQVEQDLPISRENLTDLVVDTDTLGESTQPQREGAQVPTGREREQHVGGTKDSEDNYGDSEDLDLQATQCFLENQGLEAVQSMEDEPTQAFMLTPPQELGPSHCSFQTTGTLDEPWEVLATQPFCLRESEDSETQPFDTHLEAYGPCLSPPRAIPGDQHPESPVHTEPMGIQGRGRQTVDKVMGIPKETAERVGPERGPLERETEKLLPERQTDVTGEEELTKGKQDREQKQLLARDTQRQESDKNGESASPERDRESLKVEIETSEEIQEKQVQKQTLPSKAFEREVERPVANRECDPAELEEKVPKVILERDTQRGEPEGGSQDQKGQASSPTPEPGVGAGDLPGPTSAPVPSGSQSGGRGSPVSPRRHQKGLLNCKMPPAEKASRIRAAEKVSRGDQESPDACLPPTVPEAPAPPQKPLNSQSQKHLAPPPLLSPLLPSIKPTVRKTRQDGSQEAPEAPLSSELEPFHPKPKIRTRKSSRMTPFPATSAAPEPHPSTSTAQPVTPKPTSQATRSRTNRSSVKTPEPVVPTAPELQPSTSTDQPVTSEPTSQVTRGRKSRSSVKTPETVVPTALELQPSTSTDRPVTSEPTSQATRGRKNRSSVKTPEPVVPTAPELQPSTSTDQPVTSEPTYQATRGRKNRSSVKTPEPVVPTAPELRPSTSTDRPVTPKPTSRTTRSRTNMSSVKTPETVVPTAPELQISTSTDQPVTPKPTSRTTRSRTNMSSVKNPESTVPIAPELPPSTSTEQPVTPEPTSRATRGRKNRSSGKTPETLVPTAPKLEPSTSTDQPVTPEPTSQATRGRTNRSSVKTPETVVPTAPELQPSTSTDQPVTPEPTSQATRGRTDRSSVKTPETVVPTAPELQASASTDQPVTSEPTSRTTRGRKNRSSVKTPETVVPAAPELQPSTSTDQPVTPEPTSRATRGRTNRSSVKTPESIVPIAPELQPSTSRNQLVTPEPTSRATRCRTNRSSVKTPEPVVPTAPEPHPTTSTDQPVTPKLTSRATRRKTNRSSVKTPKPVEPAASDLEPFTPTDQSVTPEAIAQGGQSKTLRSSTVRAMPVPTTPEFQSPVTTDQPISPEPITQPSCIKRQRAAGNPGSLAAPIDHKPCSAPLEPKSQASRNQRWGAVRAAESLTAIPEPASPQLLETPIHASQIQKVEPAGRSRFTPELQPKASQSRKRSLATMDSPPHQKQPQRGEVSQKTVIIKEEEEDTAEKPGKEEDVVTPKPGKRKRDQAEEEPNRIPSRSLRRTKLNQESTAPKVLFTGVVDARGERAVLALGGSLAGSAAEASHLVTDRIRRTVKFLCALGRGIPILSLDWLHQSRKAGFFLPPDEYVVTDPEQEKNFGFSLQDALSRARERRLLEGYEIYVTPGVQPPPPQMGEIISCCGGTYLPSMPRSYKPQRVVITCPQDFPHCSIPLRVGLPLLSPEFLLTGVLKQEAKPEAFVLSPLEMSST
For MGEPGFFVTGDRAGGRSWCLRRVGMSAGWLLLEDGCEVTVGAGFGVTYQLVSKICPLMISRNHCVLKQNPEGQWTIMDNKSLNGVWLNRARLEPLRVYSIHQGDYIQLGVPLENKENAEYEYEVTEEDWETIYPCLSPKNDQMIEKNKELRTKRKFSLDELAGPGAEGPSNLKSKINKVSCESGQPVKSQGKGEVASTPSDNLDPKLTALEPSKTTGAPIYPGFPKVTEVHHEQKASNSSASQRSLQMFKVTMSRILRLKIQMQEKHEAVMNVKKQTQKGNSKKVVQMEQELQDLQSQLCAEQAQQQARVEQLEKTFQEEEQHLQGLEIAQGEKDLKQQLAQALQEHWALMEELNRSKKDFEAIIQAKNKELEQTKEEKEKMQAQKEEVLSHMNDVLENELQCIICSEYFIEAVTLNCAHSFCSYCINEWMKRKIECPICRKDIKSKTYSLVLDNCINKMVNNLSSEVKERRIVLIRERKAKRLF [R42A], the “effect of a mutation on the interaction” value was “disrupting interaction”.
